Assay [1] deals with primary stellate cells (HSC). Put plainly: Self-activation of primary stellate cells (HSC) cultured in vitro, related gene expression by RT-PCR. In kind it is cell-based. Conditions: ECM1 protein 50 µg/ml, cRGD 10 µg/ml; WT mouse HSC cultured in vitro 2 weeks, vs unrelated IgG (NC). On the procedure:
B: Primary stellate cells (HSC) from the liver of wild-type mouse (WT) are isolated and cultured in vitro for 2 weeks. Recombinant mouse ECM1 protein ([…]), cRGD ([…]) or unrelated IgG protein ([…]) are added to the culture medium as negative control (NC). Changing fresh culture medium every 3 days. Two weeks later, It is lysed with TRIZO and mRNA is extracted, and cDNA is obtained by reverse transcription. Finally, the expression of related genes is detected by RT-PCR.
The primary stellate cells (HSC) of the mouse liver will self-activate during in vitro culture. This is because of the change in culture conditions, the Latent TGF-β1 secreted by the cells will be activated by integrin αv on the cell surface to activate stellate cells (HSC). In this process, the addition of integrin αv inhibitor (cRGD) or TGF-β1 neutralizing antibody will inhibit the self-activation of stellate cells (HSC).
Therefore, primary stellate cells (HSC) from the liver of wild-type mice (WT) were isolated and cultured in vitro for 2 weeks. Recombinant mouse ECM1 protein ([…]), cRGD ([…]) or unrelated IgG protein ([…]) were added to the culture medium as negative control (NC). Changing fresh culture solution every 3 days. […] Finally, the expression of related genes was detected by RT-PCR to determine the activation degree of primary stellate cells (HSC).

Assay [2] has as its system Latent TGF-β1 activation on the surface of stellate cells (HSC). The assay can be described thus: TGF-β1 activity reporter co-culture of primary HSC with NIH-3T3 luciferase reporter cells. Format: cell-based. The note with it: 50 g/ml in culture medium, 16 hours of culture, WT mouse HSC with NIH-3T3 reporter cells, vs unrelated IgG (NC). Here is the method:
A: Primary stellate cells (HSC) from the liver of wild-type mice (WT) are isolated and co-cultured with NIH-3T3 cells containing the TGF-β1 activity reporter system. Recombinant mouse ECM1 protein ([…]), cRGD ([…]) or unrelated IgG protein ([…]) are added to the culture medium as negative control (NC). After 16 hours of the culture, the cells are lysed, and Luciferase activity in the lysate is detected.
The process of Latent TGF-β1 activation to TGF-β1 is a transient effect. Activated TGF-β1 will bind to TGF-β1 receptor on the adjacent cell surface, phosphorylating the downstream SMAD protein, and then activating the downstream gene expression. In order to better detect the process of Latent TGF-β1 activation to TGF-β1, we used a co-culture system to detect the […] activation process that occurs on the surface of HSC stellate cells. A luciferase reporter gene was stably transfected into NIH-3T3 cells. There are 4 repeated SMAD binding sites in the upstream of this reporter gene. […]
Firstly, primary stellate cells (HSC) of wild-type mouse (WT) liver were isolated and co-cultured with NIH-3T3 cells containing TGF-β1 activity reporter system. […] After 16 hours of culture, the cells were lysed, and Luciferase activity in the lysate was detected. […]

cRGD [reference compound]: the “activation of stellate cells (HSC), expression of related genes by RT-PCR” value in assay [1] is “significantly inhibit”.

B1: recombinant mouse ECM1 protein: Recombinant mouse extracellular matrix protein 1 added to the culture medium (protein, UniProt Q61508 20-559, looked up)
Extracellular matrix protein 1: ASEGAFKASDQREMTPERLFQHLHEVGYAAPPSPPQTRRLRVDHSVTSLHDPPLFEEQREVQPPSSPEDIPVYEEDWPTFLNPNVDKAGPAVPQEAIPLQKEQPPPQVHIEQKEIDPPAQPQEEIVQKEVKPHTLAGQLPPEPRTWNPARHCQQGRRGVWGHRLDGFPPGRPSPDNLKQICLPERQHVIYGPWNLPQTGYSHLSRQGETLNVLETGYSRCCRCRSDTNRLDCLKLVWEDAMTQFCEAEFSVKTRPHLCCRLRGEERFSCFQKEAPRPDYLLRPCPVHQNGMSSGPQLPFPPGLPTPDNVKNICLLRRFRAVPRNLPATDAIQRQLQALTRLETEFQRCCRQGHNHTCTWKAWEGTLDGYCERELAIKTHPHSCCHYPPSPARDECFAHLAPYPNYDRDILTLDLSRVTPNLMGQLCGSGRVLSKHKQIPGLIQNMTIRCCELPYPEQACCGEEEKLAFIENLCGPRRNSWKDPALCCDLSPEDKQINCFNTNYLRNVALVAGDTGNATGLGEQGPTRGTDANPAPGSKEE
With B1, the “activation of Latent TGF-β1 on the surface of stellate cells (HSC), Luciferase activity” value in assay [2] is on record as “significantly inhibit”. Moreover, in assay [1], the “activation of stellate cells (HSC), expression of related genes by RT-PCR” value is “significantly inhibit”.

The values are drawn from patent publication US20220095596A1, “USE OF ECM1 GENE-KNOCKOUT MOUSE IN SCREENING OF ANTI-HEPATIC FIBROSIS DRUG” (CENTER FOR EXCELLENCE IN MOLECULAR CELL SCIENCE, CHINESE …, priority 2018, published 2022).
